For two molecules, FRNT50 (focus reduction neutralization on Vero cells) results are on record in patent US20210054055A1.

The assay has as its target Dengue virus serotype 4 (DENV4) virions, envelope protein E (Dengue virus 4).

Bounds are passed on as bounds.

B1: Anti-ZIKV clone DT168(A)-D1_A-9E (A9E) (antibody, V domains shown)
VH: EVQLLESGGGLVQAGGSLRLSCAASGFTFDTYAMSWVRQPPGKGLEWVSAISTGGGSKYYADSVKGRLTISRDNSQNTLYLQMSSLRADDTAVYYCARSDFWRSGRYYYYMDVWGRGTTVTVSS
VL: QSALTQPASVSASPGQSITISCTGTHFDIVDYDYLSWYQQHPGNAPKLLIYGVSNRPSGVSSRFSGSKSGNTASLTISGLQAEDEGDYYCSSYSISSTLLVFGGGTKLSV
On to B1, for which the FRNT50 (focus reduction neutralization on Vero cells) was greater than 10000 ng/mL.

B2: Anti-ZIKV clone DT168(A)-D1_G-9E (G9E) (antibody, V domains shown)
VH: EVQLVESGGGVVQPGRSLRLSCVASGFAFSNYHMHWVRQAPGKGLEWVAIIWDDGSDQYYADSVKGRFTISRDNSKNTLFLQMNRLRAEDTALYYCVGGSSAYNGDNGWREAASLDDWGQGTLVTVSS
VL: QSALTQPASVSGSPGQSITIFCSGSSNDVGGYNYVSWYQQYPGKVPKLLIYDVNSRPSGVSNRFSGSKSGNTASLTISGLQAEDEADYYCSSYTSRRTWVFGGGTIVTVL
Molecule B2 displayed an FRNT50 (focus reduction neutralization on Vero cells) greater than 10000 ng/mL.
